Structures can show the parent of a compound that is named as a salt.
Key:
[1] = molecular target: Hydroxylase (MMOH) of soluble methane monooxygenase (sMMO) from Methylosinus sporium 5 (Methylosinus sporium 5); experiment: other fluorescence titration; tryptophan quenching (Ex 282 nm, Em 336 nm); MMOH 0.32 uM in the cuvette, MMORs added from 0 to 110 equivalents; 25 mM MOPS, 50 mM NaCl, 1 mM DTT, pH 6.5; fitted with a 1:2 binding model
[2] = molecular target: T1, sMMO (MMOH + MMOB + MMOR) (Methylosinus sporium, UniProt Q27RN2, Y93A); experiment: NADH consumption at […] nm; assay type: biochemical; conditions: turnover; propylene and O2 as co-substrates; 1 uM MMOH, 2 equiv. MMOB, 0.5 or 1.0 equiv. MMOR; 25 mM phosphate, 50 mM NaCl, pH 7.0
T1 construct: gene mmoC; recombinant MMOB and MMOR (39 kDa) from E. coli; with Methane monooxygenase component A alpha chain; Methane monooxygenase component A beta chain; Methane monooxygenase component A gamma chain; Methane monooxygenase regulatory protein B
T1 sequence (Q27RN2 entry or part of it Y93A): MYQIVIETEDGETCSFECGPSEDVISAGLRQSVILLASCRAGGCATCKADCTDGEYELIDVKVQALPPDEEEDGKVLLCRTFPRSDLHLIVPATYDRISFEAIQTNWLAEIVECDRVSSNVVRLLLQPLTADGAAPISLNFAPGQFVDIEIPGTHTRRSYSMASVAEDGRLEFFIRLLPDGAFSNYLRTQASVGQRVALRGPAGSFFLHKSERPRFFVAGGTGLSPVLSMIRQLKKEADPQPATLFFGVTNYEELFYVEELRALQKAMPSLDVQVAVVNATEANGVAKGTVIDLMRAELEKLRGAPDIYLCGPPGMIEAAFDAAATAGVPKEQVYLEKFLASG
T1 sequence (Q27RN4 entry or part of it, stated change not applied, further chain): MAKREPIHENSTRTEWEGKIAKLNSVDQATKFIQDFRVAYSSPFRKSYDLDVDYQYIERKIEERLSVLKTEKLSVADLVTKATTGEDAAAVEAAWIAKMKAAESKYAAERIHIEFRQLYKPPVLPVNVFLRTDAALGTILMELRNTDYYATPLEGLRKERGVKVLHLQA
T1 sequence (Q27RN6 entry or part of it, stated change not applied, further chain): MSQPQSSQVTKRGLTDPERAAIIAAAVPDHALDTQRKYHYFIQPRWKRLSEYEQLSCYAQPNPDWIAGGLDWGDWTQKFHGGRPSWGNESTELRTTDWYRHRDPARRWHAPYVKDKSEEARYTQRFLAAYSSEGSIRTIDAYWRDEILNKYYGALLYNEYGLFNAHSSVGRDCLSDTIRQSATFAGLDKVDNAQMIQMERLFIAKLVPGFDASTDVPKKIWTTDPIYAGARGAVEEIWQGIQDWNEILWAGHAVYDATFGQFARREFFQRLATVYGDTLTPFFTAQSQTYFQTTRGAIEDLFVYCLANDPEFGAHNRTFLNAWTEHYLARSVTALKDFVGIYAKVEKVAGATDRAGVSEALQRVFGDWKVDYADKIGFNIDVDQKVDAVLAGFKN

MMOR [3] = molecular target: T2, MMOR (Methylosinus sporium, UniProt Q27RN2, Y93A); experiment: UV-visible spectrum of purified protein, cofactor content; conditions: FAD as purified, calibrated for [2Fe-2S] absorption; FAD/NADH-binding domain; stoichiometry, not an affinity; extra FAD said to be non-specific
T2 construct: gene mmoC; full-length reductase (39 kDa), recombinant in E. coli BL21(DE3) from pET30a(+); ferredoxin domain = residues 1-98
T2 sequence (Q27RN2 entry or part of it Y93A): as the sequence (Q27RN2 entry or part of it Y93A) above

MMOR [4] = molecular target: T3, MMOR (Methylosinus sporium, UniProt Q27RN2, Y95A); experiment: as above; conditions: FAD as purified, calibrated for [2Fe-2S] absorption; FAD/NADH-binding domain
T3 construct: gene mmoC; full-length reductase (39 kDa), recombinant in E. coli BL21(DE3) from pET30a(+); ferredoxin domain = residues 1-98
T3 sequence (Q27RN2 entry or part of it Y95A): as the sequence (Q27RN2 entry or part of it Y93A) above, with A93Y, Y95A counted along it

Kd1 (first site, 1:2 binding model) [1]	Kd2 (second site, 1:2 binding model) [1]	FAD/protein (MMOR [3])	Compound	NADH consumption at 340 nm [2]	FADs per purified reductase (MMOR [4])
0.21 µM	7.97 µM		MMOR-Y95A (enzyme)		
			NC(=O)C1=CN([C@@H]2O[C@H](COP(=O)(O)OP(=O)(O)OC[C@H]3O[C@@H](n4cnc5c(N)ncnc54)[C@H](O)[C@@H]3O)[C@@H](O)[C@H]2O)C=CC1 [β-nicotinamide adenine dinucleotide, reduced disodium salt hydrate]	The activity of MMOR-Y93A was dramatically reduced	
		2.0 FAD/protein	Cc1cc2nc3c(=O)[nH]c(=O)nc-3n(C[C@H](O)[C@H](O)[C@H](O)COP(=O)(O)OP(=O)(O)OC[C@H]3O[C@@H](n4cnc5c(N)ncnc54)[C@H](O)[C@@H]3O)c2cc1C [flavin adenine dinucleotide]		two irons and two FADs per purified reductase
0.15 µM	17 µM		MMOR-Y93A (enzyme)		

Source: PMC9628860, “Electron Transfer to Hydroxylase through Component Interactions in Soluble Methane Monooxygenase” (Journal of Microbiology and Biotechnology, 2022)
